{"source": "paper PMC12022308", "about": "(Nature Communications, 2025)", "proteins": {"B1": {"name": "L-protein (homodimeric BchL protein, electron donor component of DPOR) (natural protein, Rhodobacter sphaeroides, UniProt Q9RFD6 1-297, looked up)", "chain": "MSPKDLTIPTGADGEGSVQVHLDEADKITGAKVFAVYGKGGIGKSTTSSNLSAAFSILGKRVLQIGCDPKHDSTFTLTGSLVPTVIDVLKDVDFHPEELRPEDFVFEGFNGVMCVEAGGPPAGTGCGGYVVGQTVKLLKQHHLLDDTDVVIFDVLGDVVCGGFAAPLQHADQAVVVTANDFDSIYAMNRIIAAVQAKSKNYKVRLAGCVANRSRATDEVDRFCKETNFRRLAHMPDLDAIRRSRLKKKTLFEMDEDQDVLAARAEYIRLAESLWRGLDPIDPHSLPDRDIFELLGFD"}}, "molecular_target": "the molecule itself", "test": "cryo-EM structure", "data": [{"protein": "B1", "values": [{"measurement": "stoichiometry N", "value": 2}]}]}
